{"source": "patent US10385103B2", "about": "“Cell-permeable (ICP)-SOCS3 recombinant protein and uses thereof” (CELLIVERY THERAPEUTICS, INC., priority 2014, dated 2019)", "key": {"[1]": {"tested_on": "Hep3B2.1-7 hepatocellular carcinoma cells", "assay": "Anti-proliferative activity, CellTiter-Glo, hepatocellular carcinoma cells", "type": "cell-based, human", "details": "10 μM, 96 hrs, compared to vehicle", "method": "(§1) Cells originated from human hepatocellular carcinoma cell (Hep3B, HepG2, Huh-7, SK-Hep1), human normal cells (HEK293, HaCaT, Chang liver cell) and mouse fibroblast (NIH3T3) were purchased from ATCC (Manassas, Va., USA) and KCLB (Seoul, Korea). All the cells were maintained as recommended by the supplier. These cells (3×10^3/well) were seeded in 96 well plates. The next day, cells were treated with DMEM (vehicle) or 10 μM recombinant SOCS3 proteins for 96 hrs in the presence of serum (2%). Proteins were replaced daily. Cell growth and survival were evaluated with the CellTiter-Glo Cell Viability Assay (Promega, Madison, Wis.). Measurements using a Luminometer (Turner Designs, Sunnyvale, Calif.) were conducted following the manufacturer's protocol."}, "STAT3": {"tested_on": "STAT3", "assay": "Inhibition of IFN-γ-induced STAT phosphorylation in PANC-1 cells (western blot), STAT3", "type": "cell-based", "method": "(§2) PANC-1 Cells (KCLB, Seoul, South Korea) were treated with 10 ng/ml IFN-γ (R&D systems, Abingdon, UK) for 15 min and treated with either DMEM (vehicle) or 10 μM aMTD/SD-fused SOCS3 recombinant proteins for 2 hrs. The cells were lysed in RIPA lysis buffer (Biosesang, Seongnam, Korea) containing proteinase inhibitor cocktail (Roche, Indianapolis, Ind., USA), incubated for 15 min at 4° C., and centrifuged at 13,000 rpm for 10 min at 4° C. Equal amounts of lysates were separated on 10% SDS-PAGE gels and transferred to a nitrocellulose membrane. The membranes were blocked using 5% skim milk in TBST and for western blot analysis incubated with the following antibodies: anti-phospho-STAT1 (Cell Signaling Technology, USA) and anti-phospho-STAT3 (Cell Signaling Technology, USA), then HRP conjugated anti-rabbit secondary antibody (Santacruz).\nas §2, with “(vehicle) or 1, 5, 10 μM” for “(vehicle) or 10 μM”, “following antibodies: anti-phospho-STAT3 (Cell” for “following antibodies: anti-phospho-STAT1 (Cell Signaling Technology, USA) and anti-phospho-STAT3 (Cell”"}, "Huh7 cells [2]": {"tested_on": "Huh7 cells", "assay": "Induction of apoptosis, TUNEL assay", "type": "cell-based, human", "details": "10 μM, 24 hr, 2% fetal bovine serum", "method": "(§3) Apoptotic cells were analyzed using terminal dUTP nick-end labeling (TUNEL) assay with In Situ Cell Death Detection kit TMR red (Roche, 4056 Basel, Switzerland). Cells were treated for 24 hr with 10 μM HS3B or HM165S3B proteins with 2% fetal bovine serum and apoptotic cells were visualized by TUNEL staining. Treated cells were washed with cold PBS two times, fixed in 4% paraformaldehyde (PFA, Junsei, Tokyo, Japan) for 1 hr at room temperature, and incubated in 0.1% Triton X-100 for 2 min on the ice. Cells were washed with cold PBS twice, and treated TUNEL reaction mixture for 1 hr at 37° C. in dark, washed cold PBS three times and observed by fluorescence microscopy (Nikon, Tokyo, Japan). Cisplatin® (IC50: 30 μM) was used for reference drug."}, "Chang liver cells": {"tested_on": "Chang liver cells", "assay": "Induction of apoptosis, TUNEL assay", "type": "cell-based, human", "details": "10 μM, 24 hr, 2% fetal bovine serum", "method": "as §3"}, "AGS cells [3]": {"tested_on": "AGS cells", "assay": "Wound cell migration inhibition in gastric carcinoma cells", "type": "cell-based", "details": "10 μM 2 hrs, additional 24 hrs", "method": "AGS cells (gastric cancer cell line) were seeded in a 12 well plate at a density of 2.5×10^5 per well, grown to 90% confluence. Confluent AGS cells were incubated with 10 μM HM#S3B in serum-free medium for 2 hrs prior to changing the growth medium (DMEM/F12, Hyclone, Logan, Utah, USA) and washed twice with PBS, and the monolayer at the center of the well was “wounded” by scraping with a sterilized white pipette tip. Cells were cultured for an additional 24 hrs and cell migration was observed by phase contrast microscopy (Nikon, ECLIPSE Ts2). The migration was quantified by counting the number of cells that migrated from the wound edge into the clear area."}, "Chang cell": {"tested_on": "Chang cell", "assay": "Cell viability of non-cancer cells, CellTiter-Glo", "type": "cell-based, human", "details": "10 μM over 4 days", "method": "as §1"}, "AGS cells [4]": {"tested_on": "AGS cells", "assay": "Antiproliferative activity, CellTiter-Glo Cell Viability Assay", "type": "cell-based", "details": "10 μM, 96 hrs, 2% serum", "method": "Antiproliferative activity were evaluated with the CellTiter-Glo Cell Viability Assay. AGS cells (3×10^3/well) were seeded in 96 well plates. The next day, cells were treated with DMEM (vehicle) or 10 μM HM165S3B, HM15S3B′(V28L) for 96 hrs in the presence of serum (2%). Proteins were replaced daily. Cell growth and survival were evaluated with the CellTiter-Glo Cell Viability Assay (Promega, Madison, Wis.). Measurements using a Luminometer (Turner Designs, Sunnyvale, Calif.) were conducted following the manufacturer's protocol."}, "Huh7 cells [5]": {"tested_on": "Huh7 cells", "assay": "Induction of apoptosis, Annexin V/7-AAD staining", "type": "cell-based, human", "details": "example 20-2", "method": "(§4) AGS cells (gastric carcinoma cell line) (American Type Culture Collection; ATCC) were seeded in a 12-well plate at a density of 1×10^5 cells/well, and then treated with 10 uM of aMTD/SD-fused SOCS3 for 14 hours. Cancer cell death was analyzed by Annexin V analysis. Annexin V/7-Aminoactinomycin D (7-AAD) staining was performed using flow cytometry according to the manufacturer's guidelines (BD Pharmingen, San Diego, Calif., USA). Briefly, cells were washed three times with ice-cold PBS. The cells were then resuspended in 100 μl of binding buffer and incubated with 1 μl of 7-AAD and 1 μl of annexin V-PE for 30 min in the dark at 37° C. Flow cytometric analysis was immediately performed using a guava easyCyte™ 8 Instrument (Merck Millipore, Darmstadt, Germany).\n(§5) The effect of inducing apoptosis of Chang liver cells was measured in the same manner as in Example 11-2, except that as target cell lines, normal Chang liver cells and hepatocellular carcinoma cell lines, Hep3B, HepG2, Huh7, and SK-HEP-1 were used, and as a reference drug, 5-FU® (IC50: 40 μM) was used."}, "Hep3B cells": {"tested_on": "Hep3B cells", "assay": "Induction of apoptosis, Annexin V/7-AAD staining", "type": "cell-based, human", "details": "example 20-2", "method": "as §4, §5"}, "normal Chang liver cells": {"tested_on": "normal Chang liver cells", "assay": "Induction of apoptosis, Annexin V/7-AAD staining", "type": "cell-based, human", "details": "example 20-2", "method": "as §4, §5"}, "SK-Hep-1 cells": {"tested_on": "SK-Hep-1 cells", "assay": "Induction of apoptosis, Annexin V/7-AAD staining", "type": "cell-based, human", "details": "example 20-2", "method": "as §4, §5"}}, "data": [{"molecule": "HM165S3B: His-tagged recombinant protein of aMTD165, human SOCS3 and solubilization domain B; prototype improved cell-permeable SOCS3 (protein, Amino acid sequence of HM165S3B) MGSSHHHHHHSSGLVPRGSHMALAVPVALAIVPVTHSKFPAAGMETSRPLDTSLRLKTFSSKSEYQLVVNAVRKLQESGFYWSAVTGGEANLLLSAEPAGTFLIRDSSDQRHFFTLSVKTQSGTKNLRIQCEGGSFSLQSDPRSTQPVPRFDCVLKLVHHYMETPPPGAPSFPSPPTEPSSEVPEQPSAQPLPGSPPRRAYYIYSGGEKIPLVLSRPLSSNVATLQHLCRKTVNGHLDSYEKVTQLPGPIREFLDQYDAPLGSMAEQSDKDVKYYTLEEIQKHKDSKSTWVILHHKVYDLTKFLEEHPGGEEVLGEQAGGDATENFEDVGHSTDARELSKTYIIGELHPDDRSKIAKPSETL", "values": [{"measurement": "cytotoxicity to Hep3B2.1-7 cells", "setting": "[1]", "result": "over 80%"}, {"measurement": "IFN-γ-induced phosphorylation of STAT3", "setting": "STAT3; PANC-1, 10 ng/ml IFN-γ 15 min, 10 μM protein 2 hrs", "result": "suppressed IFN-γ-induced phosphorylation of STAT1 and STAT3"}, {"measurement": "IFN-γ-induced phosphorylation of STAT3", "setting": "STAT3; PANC-1, 10 ng/ml IFN-γ 15 min, 1, 5, 10 μM protein 2 hrs", "result": "suppressed IFN-γ-induced phosphorylation of STAT3 in dose dependent manner"}, {"measurement": "induction of apoptosis (TUNEL), Huh7", "setting": "Huh7 cells [2]", "result": "considerably efficient inducer of apoptosis"}, {"measurement": "induction of apoptosis (TUNEL), Chang liver cells", "setting": "Chang liver cells", "result": "did not induce apoptosis"}, {"measurement": "inhibition of cell migration (wound)", "setting": "AGS cells [3]", "result": "inhibiting migration of gastric carcinoma cells"}, {"measurement": "inhibition of cell migration (wound)", "setting": "AGS cells [3]; listed as aMTD165-fused SOCS3 recombinant protein", "result": "showed the most effective inhibition of cancer cell migration"}, {"measurement": "cell viability of non-cancer cells (Chang cell)", "setting": "Chang cell", "result": "not overly toxic to normal cells"}, {"measurement": "anti-proliferative activity", "setting": "AGS cells [4]", "result": "high anti-proliferative effects on gastric carcinoma cells"}, {"measurement": "induction of apoptosis (Annexin V), Huh7", "setting": "Huh7 cells [5]", "result": "considerably efficient inducer of apoptosis"}, {"measurement": "induction of apoptosis (Annexin V), Hep3B", "setting": "Hep3B cells", "result": "considerably efficient inducer of apoptosis"}, {"measurement": "induction of apoptosis (Annexin V), normal Chang liver cells", "setting": "normal Chang liver cells", "result": "dose not induced apoptosis in normal cells"}, {"measurement": "induction of apoptosis (Annexin V), SK-HEP-1", "setting": "SK-Hep-1 cells", "result": "considerably efficient inducer of apoptosis"}]}]}
